Values quoted from earlier work, collected in PMC4438997.

Target: Ezrin FERM (Homo sapiens) (UniProt P15311)
Chain of UniProt P15311 (P15311 1-299): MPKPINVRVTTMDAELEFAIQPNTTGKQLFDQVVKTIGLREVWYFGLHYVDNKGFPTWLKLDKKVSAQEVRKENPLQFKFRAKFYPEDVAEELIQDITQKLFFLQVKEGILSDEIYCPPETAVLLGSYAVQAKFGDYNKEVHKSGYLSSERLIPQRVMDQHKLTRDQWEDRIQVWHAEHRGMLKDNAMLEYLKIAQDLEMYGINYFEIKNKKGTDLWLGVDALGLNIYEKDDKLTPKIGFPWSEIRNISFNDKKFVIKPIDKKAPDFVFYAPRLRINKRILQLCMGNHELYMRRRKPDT

Kd: 0.019 µM
Substance: NHERF1 C-terminal domain (from UniProt O14745)
